From publication PMC4319758 come the findings set out here.

In test [1] the target is Sec61 channel, wild type (Sec61p, Sbh1p, Sss1p), in reconstituted proteoliposomes (S. cerevisiae | S. cerevisiae (endogenous in the yeast membranes)) (UniProt P32915).
In test [2] the target is Sec61 channel with Sec61p S353C, in reconstituted proteoliposomes (S. cerevisiae | S. cerevisiae (endogenous in the yeast membranes)) (UniProt P32915).
Test [3] concerns the target Sec61 channel with Sec61p S179P, in reconstituted proteoliposomes (S. cerevisiae | S. cerevisiae (endogenous in the yeast membranes)) (UniProt P32915).
Test [4] deals with Sec61 channel with Sec61p of sec61-302 (D168G, S179P, F263L, S353C), in reconstituted proteoliposomes (S. cerevisiae | S. cerevisiae (endogenous in the yeast membranes)) (UniProt P32915).
The target in test [5] is Sec61 channel with Sec61p S179P/S353C, in reconstituted proteoliposomes (S. cerevisiae | S. cerevisiae (endogenous in the yeast membranes)) (UniProt P32915).
For test [6], the target named is Sec61 channel, wild type (Sec61p, Sbh1p, Sss1p), in reconstituted proteoliposomes (S. cerevisiae | S. cerevisiae (endogenous in the yeast membranes)) (UniProt P32915). Nature of the test: flotation of proteoliposomes in a sucrose gradient; 20 eq of reconstituted proteoliposomes with 2 pmol 19S RP in 30 µl binding buffer (20 mM Hepes-KOH pH 7.2, 250 mM sucrose, 120 mM KOAc, 5 mM Mg(OAc)2, 5 mM ATP, 1 mM DTT), 20 min on ice then 10 min at RT; flotation 55,000 rpm, 4°C, 1 hr; 9 fractions, 19S RP detected by anti-FLAG blot.

The target of test [7] is Sec61 channel with Sec61p of sec61-302 (D168G, S179P, F263L, S353C), in reconstituted proteoliposomes (S. cerevisiae | S. cerevisiae (endogenous in the yeast membranes)) (UniProt P32915). The test is described as above.

With “proteasome 19S regulatory particle (RP), FLAG-tagged on Rpt1 (from UniProt P33299 1-467) (complex)”, the t1/2 of Δgpαf export and degradation from microsomes in the cell-free ERAD assay with 1 mg/ml cytosol (limiting 19S RP) in test [1] was found to be 20 min; in test [2] it was 45 min; in test [4], 45 min; in test [5] it was 45 min. This substance yielded a t1/2 of Δgpαf export and degradation from microsomes in the cell-free ERAD assay with 1 mg/ml cytosol (limiting 19S RP); wildtype kinetics in test [3] of 20 min. In addition, the percent of 19S RP bound in test [6] came to 40%; in test [7] it was 20%.
